Substitutions are numbered along the chain they refer to.
How the values were obtained:
[1] = target: T1, PUM1 PUF GR (repeat 6 Gly12/Arg16) (Homo sapiens, UniProt Q14671 SEQ:1-351); test: EMSA; 10 mM HEPES pH 8.0, 50 mM KCl, 1 mM EDTA, RT; details: tags: intein-CBD cleaved for EMSA; label: 5'-fluorescein
T1 chain: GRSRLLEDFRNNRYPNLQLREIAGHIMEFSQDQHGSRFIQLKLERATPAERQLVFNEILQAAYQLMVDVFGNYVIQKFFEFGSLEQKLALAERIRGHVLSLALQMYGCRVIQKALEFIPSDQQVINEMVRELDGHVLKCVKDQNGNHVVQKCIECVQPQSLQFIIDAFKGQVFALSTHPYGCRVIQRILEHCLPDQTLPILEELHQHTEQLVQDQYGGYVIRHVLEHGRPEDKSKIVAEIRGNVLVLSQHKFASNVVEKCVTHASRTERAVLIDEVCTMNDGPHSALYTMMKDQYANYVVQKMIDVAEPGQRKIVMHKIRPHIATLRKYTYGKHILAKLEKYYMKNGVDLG
Method: (§1) Purified PUF domains were incubated at room temperature for 30 min with fluorescein labeled RNA oligonucleotides (Dharmacon) in 10 mM HEPES (pH 8.0), 1 mM EDTA, 50 mM KCl, 2 mM DTT, 0.1 mg/ml fatty acid-free BSA, and 0.02% Tween-20.

[2] = target: T2, PUM1 PUF CR (repeat 6 Cys12/Arg16) (Homo sapiens, UniProt Q14671 SEQ:1-351); test: EMSA; 10 mM HEPES pH 8.0, 50 mM KCl, 1 mM EDTA, RT; details: tags: intein-CBD cleaved for EMSA; label: 5'-fluorescein
T2 chain: T1 chain with G218C
Method: as §1

B1: NREU3C (Fl) (ssRNA)
RNA: AUUGCAUAUA
B1: binds [1]; binds [2].

Source: patent US20130323813, “PEPTIDES FOR THE SPECIFIC BINDING OF RNA TARGETS” (THE UNIVERSITY OF WESTERN AUSTRALIA, published 2013)
